Laboratory results taken from US20210371529A1 (Innovent, published 2021).

T1: human LAG-3-His (human, UniProt P18627 23-450)
T1 construct: Bought antigen (ArcoBiosystems), 100 nM in solution in the ForteBio assay; also called human LAG-3 antigen (ArcoBiosystems); hLAG-3; not shown: His tag
T1 sequence (looked up): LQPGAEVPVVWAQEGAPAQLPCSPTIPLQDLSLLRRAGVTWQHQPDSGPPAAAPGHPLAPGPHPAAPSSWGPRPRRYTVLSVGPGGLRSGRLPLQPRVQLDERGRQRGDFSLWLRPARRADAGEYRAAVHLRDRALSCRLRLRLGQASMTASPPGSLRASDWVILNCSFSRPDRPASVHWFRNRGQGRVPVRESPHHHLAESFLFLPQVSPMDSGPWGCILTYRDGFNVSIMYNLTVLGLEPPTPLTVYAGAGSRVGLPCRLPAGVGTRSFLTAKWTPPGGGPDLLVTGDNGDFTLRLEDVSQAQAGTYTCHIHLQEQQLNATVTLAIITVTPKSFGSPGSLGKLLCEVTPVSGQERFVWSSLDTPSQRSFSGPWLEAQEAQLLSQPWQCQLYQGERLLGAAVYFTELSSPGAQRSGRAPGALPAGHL

T2: human LAG-3 overexpressed on HEK293 cells (human, UniProt P18627 23-525)
T2 construct: whole, on cells; also called 293-hLAG-3 cells; hLAG-3 on the cell surface
T2 sequence (looked up): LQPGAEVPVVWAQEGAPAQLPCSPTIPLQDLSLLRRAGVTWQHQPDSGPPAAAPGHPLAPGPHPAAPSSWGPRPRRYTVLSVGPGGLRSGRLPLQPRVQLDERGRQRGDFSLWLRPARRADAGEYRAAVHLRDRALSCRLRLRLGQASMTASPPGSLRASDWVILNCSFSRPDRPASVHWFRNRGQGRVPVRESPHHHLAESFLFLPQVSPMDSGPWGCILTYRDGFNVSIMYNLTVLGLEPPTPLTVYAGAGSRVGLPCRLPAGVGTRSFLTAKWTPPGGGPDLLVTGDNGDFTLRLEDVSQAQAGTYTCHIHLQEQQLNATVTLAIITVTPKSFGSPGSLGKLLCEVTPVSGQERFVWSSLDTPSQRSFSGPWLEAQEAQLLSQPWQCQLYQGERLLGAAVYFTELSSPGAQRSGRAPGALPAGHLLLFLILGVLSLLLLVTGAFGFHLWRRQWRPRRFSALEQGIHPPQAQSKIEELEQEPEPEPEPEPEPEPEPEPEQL

T3: rhLAG3 protein (huFc) (human, UniProt P18627 23-450, limits assumed)
T3 construct: Bought Fc fusion; also called antigen rhLAG3 protein (huFc) (Sino Biological); human LAG-3; not shown: human Fc
T3 sequence (looked up): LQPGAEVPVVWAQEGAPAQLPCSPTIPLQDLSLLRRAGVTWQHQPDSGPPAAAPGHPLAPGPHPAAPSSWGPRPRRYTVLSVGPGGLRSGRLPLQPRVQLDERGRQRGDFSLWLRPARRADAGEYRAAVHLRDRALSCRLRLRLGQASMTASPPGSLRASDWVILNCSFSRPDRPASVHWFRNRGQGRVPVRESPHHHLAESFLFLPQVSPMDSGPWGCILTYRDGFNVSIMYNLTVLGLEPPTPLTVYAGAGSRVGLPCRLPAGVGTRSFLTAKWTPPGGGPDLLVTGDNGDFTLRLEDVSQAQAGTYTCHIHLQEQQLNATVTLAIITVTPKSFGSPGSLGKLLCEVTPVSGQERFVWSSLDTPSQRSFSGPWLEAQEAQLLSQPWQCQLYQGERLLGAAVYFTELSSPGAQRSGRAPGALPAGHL


Columns and labels:
human LAG-3-His [1] = molecular target: T1, human LAG-3-His; assay: BLI (ForteBio), antibody on AHQ tip, human LAG-3-His 100 nM in solution, univalent
Method: (§1) The purified antibody obtained as described above was loaded on-line onto an AHQ sensor (ForteBio) for ForteBio affinity assay. The sensor with the loaded antibody was then exposed to 100 nM of a human LAG-3 antigen (ArcoBiosystems) for 5 minutes before transferring the sensor to the assay buffer for dissociation for 5 minutes for dissociation rate measurement. Kinetic analysis was performed using a 1:1 binding model.

[2] = molecular target: T2, human LAG-3 overexpressed on HEK293 …; assay: flow cytometry on 293-hLAG-3 cells, MFI curve
Method: The binding of the 4 exemplary antibodies of the invention described above to human LAG-3 was measured in a flow cytometry-based assay. 293 cells (293-hLAG-3 cells) over-expressing human LAG-3 were generated by transfecting human embryonic kidney 293 cells (Invitrogen) with pCHO1.0 vectors (Invitrogen) carrying human LAG-3 cDNA (Sino Biological) cloned into multiple cloning sites (MCSs). 293-hLAG-3 cells (0.2×10⁶ cells) were mixed with different concentrations of antibodies (ADI-26789, ADI-26869 and reference 25F7) prepared as described above (the antibodies were serially three-fold diluted from a maximum concentration of 500 nM in PBS containing 0.1% bovine serum albumin (BSA) until the 8th concentration). The cells were incubated on ice for 30 min. The cells were then washed at least twice prior to addition of a secondary antibody (a PE-labeled goat anti-human IgG antibody, Southern Biotech, final concentration […]) diluted in 1:100, and incubated on ice (protected from light) for 30 minutes. The cells were washed at least twice and analyzed by flow cytometry. The flow cytometry assay was performed on an Accuri C6 system (BD Biosciences), and a concentration-dependent curve was fitted with GraphPad according to the mean fluorescence intensity (MFI).

human LAG-3-His [3] = molecular target: T1, human LAG-3-His; assay: BLI (ForteBio), antibody on AHQ tip, human LAG-3-His 100 nM in solution
Method: as §1

rhLAG3 protein (huFc) = molecular target: T3, rhLAG3 protein (huFc); assay: flow cytometry, blocking of rhLAG3 (huFc) 20 nM binding to HLA-DR on CHO-DR cells
Method: Antigen rhLAG3 protein (huFc) (Sino Biological) was diluted to 40 nM, 50 μL/well. […] 50 μL of the diluted antibodies was added to each well, and incubated in PBS on ice for 30 min. The final antigen concentration was 20 nM and the maximum antibody concentration was 40 nM. The CHO-DR cells were adjusted to 3×10⁵ cells/well, 100 μL/well. The cells were centrifuged at 300 g for 5 min. The supernatant was discarded. Then the cells were resuspended in an antigen-antibody mixture. The mixture was incubated on ice for 30 min. PBS was added, 100 μL/well. After centrifugation at 300 g for 5 min, the mixture was washed with PBS once. 100 μL of goat anti-human IgG-PE (Southern Biotech) diluted in 1:100 was added to each well. After a 20-min ice bath, PBS was added, 100 μL/well. The mixture was centrifuged at 300 g for 5 min, prior to one wash with PBS. The cells were resuspended with 100 μL of PBS. The cell fluorescence signal values were measured by flow cytometry (BD Biosciences).

Kd (human LAG-3-His [1])	EC50 [2]	koff (human LAG-3-His [3])	kon (human LAG-3-His [3])	IC50 (rhLAG3 protein (huFc))	Binder
0.606 nM	0.501 nM	0.0002 s⁻¹	330000 M⁻¹ s⁻¹	5.85 nM	ADI-31851 (antibody, human IgG4 S228P, kappa, F234A L235A, V domains shown, IgG4 heavy chain constant region with kappa light chain; expressed in HEK293 cells) VH: QLQLQESGPGLVKPSETLSLTCTVSGGSISSPDYYWGWIRQPPGKGLEWIGSIVYSGYTYYNPSLKSRVTISVDTSKNQFSLKLSSVTAADTAVYYCARVRTWDQSFDIWGQGTMVTVSS VL: DIQMTQSPSSLSASVGDRVTITCQAGQDISNYLNWYQQKPGKAPKLLIYDASNLETGVPSRFSGSGSGTDFTFTISSLQPEDIATYYCQQVLELPPWTFGGGTKVEIKR
0.622 nM	0.433 nM	0.0002 s⁻¹	322000 M⁻¹ s⁻¹	4.53 nM	ADI-31853 (antibody, human IgG4 S228P, kappa, F234A L235A, V domains shown, IgG4 heavy chain constant region with kappa light chain; expressed in HEK293 cells) VH: QLQLQESGPGLVKPSETLSLTCTVSGGSIYSESYYWGWIRQPPGKGLEWIGSIVYSGYTYYNPSLKSRVTISVDTSKNQFSLKLSSVTAADTAVYYCARVRTWDAAFDIWGQGTMVTVSS VL: DIQMTQSPSSLSASVGDRVTITCQASQDISNYLNWYQQKPGKAPKLLIYDASNLETGVPSRFSGSGSGTDFTFTISSLQPEDIATYYCQQVLELPPWTFGGGTKVEIKR
